US20030032788

T1: endogenous rat mitochondrial aldehyde dehydrogenase (ALDH2) of H4-II-E-C3 hepatoma cells, P11884
T1 chain: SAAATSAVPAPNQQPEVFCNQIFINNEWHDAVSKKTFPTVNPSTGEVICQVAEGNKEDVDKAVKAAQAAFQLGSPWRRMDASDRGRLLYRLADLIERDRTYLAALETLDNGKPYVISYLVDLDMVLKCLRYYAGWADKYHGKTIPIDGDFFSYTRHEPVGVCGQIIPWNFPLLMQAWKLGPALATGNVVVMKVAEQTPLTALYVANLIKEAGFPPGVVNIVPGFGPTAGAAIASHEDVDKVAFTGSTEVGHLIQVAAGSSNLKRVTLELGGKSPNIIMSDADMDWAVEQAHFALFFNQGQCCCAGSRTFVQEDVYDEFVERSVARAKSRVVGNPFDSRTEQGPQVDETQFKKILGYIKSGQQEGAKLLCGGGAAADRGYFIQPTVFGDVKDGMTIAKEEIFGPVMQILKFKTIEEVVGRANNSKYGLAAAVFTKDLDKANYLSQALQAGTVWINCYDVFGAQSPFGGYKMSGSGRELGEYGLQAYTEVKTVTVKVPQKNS


Biological target: T1, endogenous rat mitochondrial aldehyde …

Protein | ALDH2 specific activity of ALDH2-2 transduced H4 clones (lower end of range) (nanomoles/minute/milligram protein) | ALDH2 specific activity of ALDH2-2 transduced H4 clones (mean ± SEM, N=22) (nanomoles/minute/milligram protein) | ALDH2 specific activity of ALDH2-2 transduced H4 clones (upper end of range) (nanomoles/minute/milligram protein) | reduction in hepatocyte ALDH2 activity | ALDH2 specific activity of ALDH2-1 transduced H4 clones (lower end of range) (nanomoles/minute/milligram protein) | ALDH2 specific activity of ALDH2-1 transduced H4 clones (mean ± SEM, N=15) (nanomoles/minute/milligram protein) | ALDH2 specific activity of ALDH2-1 transduced H4 clones (upper end of range) (nanomoles/minute/milligram protein) | increase of ALDH activity relative to the empty vector control group
human ALDH2-2 (mutant) monomer, expressed from the retroviral vector pLHCK3'UT in rat hepatoma H4-II-E-C3 cells (protein) SAAATQAVPAPNQQPEVFCNQIFINNEWHDAVSRKTFPTVNPSTGEVICQVAEGDKEDVDKAVKAARAAFQLGSPWRRMDASHRGRLLNRLADLIERDRTYLAALETLDNGKPYVISYLVDLDMVLKCLRYYAGWADKYHGKTIPIDGDFFSYTRHEPVGVCGQIIPWNFPLLMQAWKLGPALATGNVVVMKVAEQTPLTALYVANLIKEAGFPPGVVNIVPGFGPTAGAAIASHEDVDKVAFTGSTEIGRVIQVAAGSSNLKRVTLELGGKSPNIIMSDADMDWAVEQAHFALFFNQGQCCCAGSRTFVQEDIYDEFVERSVARAKSRVVGNPFDSKTEQGPQVDETQFKKILGYINTGKQEGAKLLCGGGIAADRGYFIQPTVFGDVQDGMTIAKEEIFGPVMQILKFKTIEEVVGRANNSTYGLAAAVFTKDLDKANYLSQALQAGTVWVNCYDVFGAQSPFGGYKMSGSGRELGEYGLQAYTKVKTVTVKVPQKNS | 15 | 40.4 | 54 | leads to a >60% reduction in hepatocyte ALDH2 activity | – | – | – | –
human ALDH2-1 (wild-type) monomer, expressed from the retroviral vector pLNCE in rat hepatoma H4-II-E-C3 cells (protein) SAAATQAVPAPNQQPEVFCNQIFINNEWHDAVSRKTFPTVNPSTGEVICQVAEGDKEDVDKAVKAARAAFQLGSPWRRMDASHRGRLLNRLADLIERDRTYLAALETLDNGKPYVISYLVDLDMVLKCLRYYAGWADKYHGKTIPIDGDFFSYTRHEPVGVCGQIIPWNFPLLMQAWKLGPALATGNVVVMKVAEQTPLTALYVANLIKEAGFPPGVVNIVPGFGPTAGAAIASHEDVDKVAFTGSTEIGRVIQVAAGSSNLKRVTLELGGKSPNIIMSDADMDWAVEQAHFALFFNQGQCCCAGSRTFVQEDIYDEFVERSVARAKSRVVGNPFDSKTEQGPQVDETQFKKILGYINTGKQEGAKLLCGGGIAADRGYFIQPTVFGDVQDGMTIAKEEIFGPVMQILKFKTIEEVVGRANNSTYGLAAAVFTKDLDKANYLSQALQAGTVWVNCYDVFGAQSPFGGYKMSGSGRELGEYGLQAYTEVKTVTVKVPQKNS | – | – | – | – | 42 | 54.7 | 78 | ALDH activity was increased by as much as 52% in some ALDH2-1 transduced clones
